Test results as given in patent US20060286568A1.

Assays:
[1] = molecular target: eGFP-EAAT4; test: cell-based or functional assay
[2] = molecular target: eGFP-EAAT3; test: cell-based or functional assay

% of diffraction spots not moving (TIRF microscopy, HEK293 cells) [1]	% of diffraction spots not moving (TIRF microscopy, HEK293 cells) [2]	diffraction spots moving at or near the membrane (TIRF microscopy, HEK293 cells) [1]	Substance
67.5%			myc-tagged mutant β-III spectrin with the 39 bp American SCA5 deletion (SP-Δ39; p.E532_M544del) (from UniProt O15020 2-2390)
94.2%	58.7%	5%	myc-tagged wildtype β-III spectrin (SP-WT) (from UniProt O15020 2-2390)
